Results taken from paper PMC2187830 (The Journal of Experimental Medicine, 1990).

What was measured:
murine IL-7 receptor [1] = biological target: T1, murine IL-7 receptor (mouse (endogenous in IxN/2b), UniProt P16872 21-459); assay: radioligand binding
T1 sequence: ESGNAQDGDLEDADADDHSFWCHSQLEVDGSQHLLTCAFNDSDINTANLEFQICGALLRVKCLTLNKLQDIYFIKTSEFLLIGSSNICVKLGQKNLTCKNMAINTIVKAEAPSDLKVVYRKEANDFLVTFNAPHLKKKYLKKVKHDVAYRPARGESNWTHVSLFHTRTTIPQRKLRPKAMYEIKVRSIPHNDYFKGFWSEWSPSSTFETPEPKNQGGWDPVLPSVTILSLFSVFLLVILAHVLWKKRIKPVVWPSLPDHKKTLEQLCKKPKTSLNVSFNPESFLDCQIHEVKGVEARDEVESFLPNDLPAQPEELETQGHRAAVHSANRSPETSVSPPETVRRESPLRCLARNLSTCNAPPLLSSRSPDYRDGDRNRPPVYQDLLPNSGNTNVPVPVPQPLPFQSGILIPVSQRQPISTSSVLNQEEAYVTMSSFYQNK

murine IL-7 receptor [2] = biological target: T1, murine IL-7 receptor; assay: radioligand binding; remark: listed apart in the source

B1: 125I-labeled recombinant murine IL-7 (ligand)
chain: ECHIKDKEGKAYESVLMISIDELDKMTGTDSNCPNNEPNFFRKHVCDDTKEAAFLNRAARKLKQFLKMNISEEFNVHLLTVSQGTQTLVNCTSKEEKNVKEQKKNDACFLKRLLREIKTCWNKILKGSI
modifications: 125I on the single tyrosine residue (amino acid 12), nearly quantitatively radiolabeled
apparent Ka, high affinity component (murine IL-7 receptor [1]): 1.2e+10 M⁻¹ | apparent Ka, low affinity component (murine IL-7 receptor [2]): 4.8e+08 M⁻¹
